*1 amine or outer side, *2 acyl side, *3 side chain or, on linkers, in order; H or OH if unused. Where a SMILES comes first, the peptide text is derived from it. Bridges are numbered along the chain shown (N, C = ends). [ ]: non-standard residue; d: D form. The star is where a group is joined. ξ: configuration not given here. Ala(piperidin-4-yl) = O=C([C@H](CC1CCN([*:3])CC1)N[*:1])[*:2]; DOTA = O=C(O)CN1CCN(CC(=O)O)CCN(CC(=O)*)CCN(CC(=O)O)CC1; 2Nal = N[C@@H](Cc1ccc2ccccc2c1)C(=O)O; NMetBuAla = CN[C@@H](CC(C)(C)C)C(=O)O; tBuAla = CC(C)(C)C[C@H](N)C(=O)O; Thr(3ξ) = CC(O)[C@H](N)C(=O)O; αMeP = C[C@@]1(C(=O)O)CCCN1; CH2 = C([*:1])[*:2]

Data set [1] has as its system nude mice bearing SHP-77 tumors. In words: Ex vivo biodistribution of radiolabeled peptides (% IA/g) in nude mice bearing SHP-77 tumors. The settings on record: [177Lu]Lu labelling, 24 hours post-injection, intravenous. The method, then:
Mice were intravenously injected (via the lateral tail vein) with a bolus dose of the radiolabeled peptides for ex vivo biodistribution studies when tumor volumes were in range of 200-400 mm^3 for xenograft mice and when age of the mice was 5-7 weeks for tumor naïve mice studies. To assess the amount of radionuclide injected into individual mice the syringe was assayed in a dose calibrator before and after injection for [^177Lu]Lu-peptide, then the injected dose was determined from the weight difference and concentration of the radionuclide solution.
Mice were euthanized at pre-determined time points and selected tissues were resected and collected into pre-weighed tubes. The tubes were then reweighed post resection, the difference giving the weight of each tissue. Radioactivity in each tissue was measured using a gamma counter. Counts were decay corrected to the time of injection and percentage of injected activity per gram (% IA/g) was calculated for each tissue based on the injected activity into each individual mouse. Injected activity was converted to counts based on the sensitivity of the gamma counter. The counts in tissue were then converted to the percentage of injected activity and this was divided by the mass of tissue to give % IA/g.

A further data set concerns the target T1, DLL3 (Homo sapiens, UniProt Q9NYJ7).
T1 sequence (Q9NYJ7 27-618): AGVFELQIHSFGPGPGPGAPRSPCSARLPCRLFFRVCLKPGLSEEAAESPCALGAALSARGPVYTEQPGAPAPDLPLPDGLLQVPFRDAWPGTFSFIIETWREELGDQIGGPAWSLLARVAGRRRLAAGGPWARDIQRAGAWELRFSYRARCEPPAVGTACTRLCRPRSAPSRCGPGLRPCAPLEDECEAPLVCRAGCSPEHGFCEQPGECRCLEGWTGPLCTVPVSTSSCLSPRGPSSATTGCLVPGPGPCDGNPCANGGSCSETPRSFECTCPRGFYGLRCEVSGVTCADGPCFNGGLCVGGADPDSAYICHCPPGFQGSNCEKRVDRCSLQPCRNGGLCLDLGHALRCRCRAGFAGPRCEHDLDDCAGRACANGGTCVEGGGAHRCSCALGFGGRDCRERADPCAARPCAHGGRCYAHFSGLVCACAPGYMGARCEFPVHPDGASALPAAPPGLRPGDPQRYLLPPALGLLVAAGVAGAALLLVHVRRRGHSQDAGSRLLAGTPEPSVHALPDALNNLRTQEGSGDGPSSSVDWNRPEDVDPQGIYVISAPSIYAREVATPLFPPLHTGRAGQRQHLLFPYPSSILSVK
In words: SPR KD, biotinylated human DLL3 on streptavidin chip (Table 8). The arrangement: biotin (biotinylated). As to conditions: biotinylated human DLL3 on streptavidin sensor chip, 25° C., 1:1 binding model; read-out: SPR KD. An excerpt:
Biotinylated target ligand human DLL3 was immobilized on a streptavidin sensor chip. A reference surface was set up for nonspecific binding and refractive index changes. […] Sensorgram curves were fitted with 1:1 binding model, and affinity and kinetic parameters were obtained using Biacore Insight evaluation 4.0. software.

The target of data set [2] is T2, DLL3 (target ligand immobilized on a SA sensor chip via streptavidin capture) (Homo sapiens (Human), UniProt Q9NYJ7 27-492, limits assumed).
T2 sequence: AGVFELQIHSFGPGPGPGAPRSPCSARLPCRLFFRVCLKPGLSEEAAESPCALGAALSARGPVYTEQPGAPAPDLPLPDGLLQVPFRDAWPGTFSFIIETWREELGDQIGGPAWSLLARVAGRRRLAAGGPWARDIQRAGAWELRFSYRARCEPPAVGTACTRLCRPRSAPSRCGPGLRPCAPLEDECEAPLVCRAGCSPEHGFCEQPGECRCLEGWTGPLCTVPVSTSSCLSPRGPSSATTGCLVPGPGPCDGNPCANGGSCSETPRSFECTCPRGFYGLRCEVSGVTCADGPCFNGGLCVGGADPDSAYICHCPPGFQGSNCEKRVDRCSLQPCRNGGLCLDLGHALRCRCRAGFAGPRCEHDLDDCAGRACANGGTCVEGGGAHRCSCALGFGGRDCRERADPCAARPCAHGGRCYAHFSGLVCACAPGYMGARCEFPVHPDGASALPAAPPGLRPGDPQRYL
In words: SPR, Biacore S200, target ligand on SA chip, 25 C, 1:1 fit. The method, then:
Target ligand was immobilized on a SA sensor chip via streptavidin capture. A reference surface was set up for nonspecific binding and refractive index changes. For analysis of the kinetics of interactions, varying concentrations of peptides were injected at a flow rate of 50 μL/minute using running buffer containing 20 mM phosphate buffer with 2.7 mM KCl, 137 mM NaCl and 0.05% Surfactant P20. Sensorgram curves were fitted with 1:1 binding model, and affinity and kinetic parameters were obtained using either Biacore S200 evaluation software 1.1.1 or Biacore Insight evaluation 4.0.
A general note: In SPR one partner is held on a chip, and binding of the other changes the refractive index at the surface.

By Kd is commonly meant the equilibrium constant for the complex coming apart. With `CC(=O)N[C@@H](Cc1c[nH]c2ccccc12)C(=O)N[C@H](C(=O)N[C@@H](CC(C)(C)C)C(=O)N[C@H]1CSCSC[C@@H](C(=O)N[C@@H](Cc2c[nH]c3ccccc23)C(=O)N2CCC[C@@]2(C)C(N)=O)NC(=O)[C@H](CC(=O)O)NC(=O)[C@H](CCCCNC(=O)CN2CCN(CC(=O)O)CCN(CC(=O)O)CCN(CC(=O)O)CC2)NC(=O)[C@H](Cc2ccc3ccccc3c2)NC(=O)[C@H](CC(N)=O)NC(=O)[C@H](CC2CCNCC2)NC1=O)[C@@H](C)O` [compound 437, Ac-W-T-(t-Bu-Ala)-C(1)-[3-(4-piperidinyl)-Ala]-N-(2Nal)-Lys(DOTA)-D-C(1)-W-(aMe-P)-CONH2] (Ac-WT[tBuAla]C[Ala(piperidin-4-yl)]N[2Nal]K(DOTA)DCW[αMeP]-NH2; linker 4-10 via CH2), in data set [1], the “kidney uptake (% IA/g)” value is listed as “C (“C” represents 0 < % IA/g ≤ 10 in)” and the “tumor uptake (% IA/g)” value is listed as “B (“B” represents % IA/g > 5 in tumor)”. Besides, the dissociation constant Kd at DLL3 is less than 0.001 µM.
For `CC(=O)N[C@@H](Cc1c[nH]c2ccccc12)C(=O)N[C@H](C(=O)N(C)[C@@H](CC(C)(C)C)C(=O)N[C@H]1CSCSC[C@@H](C(=O)N[C@@H](Cc2c[nH]c3ccccc23)C(=O)N2CCC[C@@]2(C)C(=O)O)NC(=O)[C@H](CC(=O)O)NC(=O)[C@H](CCCCNC(=O)CN2CCN(CC(=O)O)CCN(CC(=O)O)CCN(CC(=O)O)CC2)NC(=O)[C@H](Cc2ccc3ccccc3c2)NC(=O)[C@H](CC(N)=O)NC(=O)[C@H](CC2CCNCC2)NC1=O)C(C)O` (stereo partly drawn) [compound 443, Ac-W-T-(NMe-tBuAla)-C(1)-[3-(4-piperidinyl)-Ala]-N-(2Nal)-Lys(DOTA)-D-C(1)-W-(aMe-P)-CO2H] (Ac-W[Thr(3ξ)][NMetBuAla]C[Ala(piperidin-4-yl)]N[2Nal]K(DOTA)DCW[αMeP]-OH; linker 4-10 via CH2) the same measures were “C (“C” represents 0 < % IA/g ≤ 10 in)”, “B (“B” represents % IA/g > 5 in tumor)” and less than 0.001 µM.
Consider Ac-MWTICNNWHDCWP-NH2 (disulfide 5-11) [SEQ ID NO 69], for which the Kd in data set [2] amounted to 0.012 µM.

B1: SEQ ID NO 83 (peptide)
peptide: Ac-MWTICNNWH[dA]CWP-NH2
modifications: disulfide 5-11
SMILES: CC[C@H](C)[C@H](NC(=O)[C@@H](NC(=O)[C@H](Cc1c[nH]c2ccccc12)NC(=O)[C@H](CCSC)NC(C)=O)[C@@H](C)O)C(=O)N[C@H]1CSSC[C@@H](C(=O)N[C@@H](Cc2c[nH]c3ccccc23)C(=O)N2CCC[C@H]2C(N)=O)NC(=O)[C@@H](C)NC(=O)[C@H](Cc2c[nH]cn2)NC(=O)[C@H](Cc2c[nH]c3ccccc23)NC(=O)[C@H](CC(N)=O)NC(=O)[C@H](CC(N)=O)NC1=O
Turning to B1, in data set [2], the Kd was determined as 0.32 µM.

B2: SEQ ID NO 81 (peptide)
peptide: Ac-[dA]WTICNNWHDCWP-NH2
modifications: disulfide 5-11
SMILES: CC[C@H](C)[C@H](NC(=O)[C@@H](NC(=O)[C@H](Cc1c[nH]c2ccccc12)NC(=O)[C@@H](C)NC(C)=O)[C@@H](C)O)C(=O)N[C@H]1CSSC[C@@H](C(=O)N[C@@H](Cc2c[nH]c3ccccc23)C(=O)N2CCC[C@H]2C(N)=O)NC(=O)[C@H](CC(=O)O)NC(=O)[C@H](Cc2c[nH]cn2)NC(=O)[C@H](Cc2c[nH]c3ccccc23)NC(=O)[C@H](CC(N)=O)NC(=O)[C@H](CC(N)=O)NC1=O
In data set [2], B2 came in with an equilibrium dissociation constant (Kd) of 0.0065 µM.

B3: SEQ ID NO 84 (peptide)
peptide: Ac-MWTICNNWHDC[dA]P-NH2
modifications: disulfide 5-11
SMILES: CC[C@H](C)[C@H](NC(=O)[C@@H](NC(=O)[C@H](Cc1c[nH]c2ccccc12)NC(=O)[C@H](CCSC)NC(C)=O)[C@@H](C)O)C(=O)N[C@H]1CSSC[C@@H](C(=O)N[C@H](C)C(=O)N2CCC[C@H]2C(N)=O)NC(=O)[C@H](CC(=O)O)NC(=O)[C@H](Cc2c[nH]cn2)NC(=O)[C@H](Cc2c[nH]c3ccccc23)NC(=O)[C@H](CC(N)=O)NC(=O)[C@H](CC(N)=O)NC1=O
In data set [2], B3 displayed a Kd of 0.24 µM.

B4: SEQ ID NO 79 (peptide)
peptide: Ac-MSDCWLQWNCPFD-NH2
modifications: disulfide 4-10
SMILES: CSCC[C@H](NC(C)=O)C(=O)N[C@@H](CO)C(=O)N[C@@H](CC(=O)O)C(=O)N[C@H]1CSSC[C@@H](C(=O)N2CCC[C@H]2C(=O)N[C@@H](Cc2ccccc2)C(=O)N[C@@H](CC(=O)O)C(N)=O)NC(=O)[C@H](CC(N)=O)NC(=O)[C@H](Cc2c[nH]c3ccccc23)NC(=O)[C@H](CCC(N)=O)NC(=O)[C@H](CC(C)C)NC(=O)[C@H](Cc2c[nH]c3ccccc23)NC1=O
B4: binding in data set [2] was put at a Kd of 0.032 µM.

B5: SEQ ID NO 76 (peptide)
peptide: Ac-MDCNFFDCDAWTW-NH2
modifications: disulfide 3-8
SMILES: CSCC[C@H](NC(C)=O)C(=O)N[C@@H](CC(=O)O)C(=O)N[C@H]1CSSC[C@@H](C(=O)N[C@@H](CC(=O)O)C(=O)N[C@@H](C)C(=O)N[C@@H](Cc2c[nH]c3ccccc23)C(=O)N[C@H](C(=O)N[C@@H](Cc2c[nH]c3ccccc23)C(N)=O)[C@@H](C)O)NC(=O)[C@H](CC(=O)O)NC(=O)[C@H](Cc2ccccc2)NC(=O)[C@H](Cc2ccccc2)NC(=O)[C@H](CC(N)=O)NC1=O
With B5, in data set [2], the Kd amounted to 0.29 µM.
In data set [2], {DOTA}-WTICNNWHDCWP-NH2 (disulfide 4-10) [SEQ ID NO 80] came in with an equilibrium dissociation constant (Kd) of 0.08 µM.

B6: SEQ ID NO 67 (peptide)
peptide: Ac-MWTICADWAQCWP-NH2
modifications: disulfide 5-11
SMILES: CC[C@H](C)[C@H](NC(=O)[C@@H](NC(=O)[C@H](Cc1c[nH]c2ccccc12)NC(=O)[C@H](CCSC)NC(C)=O)[C@@H](C)O)C(=O)N[C@H]1CSSC[C@@H](C(=O)N[C@@H](Cc2c[nH]c3ccccc23)C(=O)N2CCC[C@H]2C(N)=O)NC(=O)[C@H](CCC(N)=O)NC(=O)[C@H](C)NC(=O)[C@H](Cc2c[nH]c3ccccc23)NC(=O)[C@H](CC(=O)O)NC(=O)[C@H](C)NC1=O
For B6, in data set [2], the dissociation constant (Kd) was found to be 0.072 µM.

B7: SEQ ID NO 78 (peptide)
peptide: Ac-MVWVPCEWDDCFY-NH2
modifications: disulfide 6-11
SMILES: CSCC[C@H](NC(C)=O)C(=O)N[C@H](C(=O)N[C@@H](Cc1c[nH]c2ccccc12)C(=O)N[C@H](C(=O)N1CCC[C@H]1C(=O)N[C@H]1CSSC[C@@H](C(=O)N[C@@H](Cc2ccccc2)C(=O)N[C@@H](Cc2ccc(O)cc2)C(N)=O)NC(=O)[C@H](CC(=O)O)NC(=O)[C@H](CC(=O)O)NC(=O)[C@H](Cc2c[nH]c3ccccc23)NC(=O)[C@H](CCC(=O)O)NC1=O)C(C)C)C(C)C
Molecule B7 showed a Kd in data set [2] of 0.068 µM.

For the origin of these results see US20250049970A1, “DLL3 TARGETING PEPTIDES AND CONSTRUCTS THEREOF” (MARIANA ONCOLOGY INC., priority 2023, published 2025).
